This experiment addresses human TLR4 (human, UniProt O00206 24-839). Description: cell-based or functional assay.

human TLR4, sequence (O00206 24-839): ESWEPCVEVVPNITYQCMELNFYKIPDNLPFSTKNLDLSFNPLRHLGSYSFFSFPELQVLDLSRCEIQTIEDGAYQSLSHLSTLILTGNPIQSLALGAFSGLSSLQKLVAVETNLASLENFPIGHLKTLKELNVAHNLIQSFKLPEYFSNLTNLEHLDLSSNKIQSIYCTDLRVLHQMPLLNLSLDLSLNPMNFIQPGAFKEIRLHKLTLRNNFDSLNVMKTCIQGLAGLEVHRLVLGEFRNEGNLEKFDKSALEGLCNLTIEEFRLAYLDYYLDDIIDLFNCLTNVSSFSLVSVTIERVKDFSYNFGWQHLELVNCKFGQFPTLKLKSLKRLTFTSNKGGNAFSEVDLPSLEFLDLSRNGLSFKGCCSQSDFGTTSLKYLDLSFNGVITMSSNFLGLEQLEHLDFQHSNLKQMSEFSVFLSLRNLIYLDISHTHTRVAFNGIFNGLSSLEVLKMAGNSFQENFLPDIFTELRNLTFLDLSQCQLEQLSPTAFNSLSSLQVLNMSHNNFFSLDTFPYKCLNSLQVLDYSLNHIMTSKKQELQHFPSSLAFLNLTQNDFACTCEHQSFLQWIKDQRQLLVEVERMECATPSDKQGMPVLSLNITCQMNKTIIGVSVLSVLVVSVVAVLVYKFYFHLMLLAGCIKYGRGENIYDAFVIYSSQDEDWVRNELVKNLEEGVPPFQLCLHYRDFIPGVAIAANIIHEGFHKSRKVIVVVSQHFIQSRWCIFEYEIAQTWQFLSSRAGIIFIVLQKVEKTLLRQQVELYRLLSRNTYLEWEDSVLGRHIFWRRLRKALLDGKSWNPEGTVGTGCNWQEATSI

B1: PeptideX2 (peptide)
peptide: KSIAYLQMNSLK
Turning to B1, the “NF-κB-driven SEAP reporter, human TLR4-transfected HEK293 cells, response relative to E. coli K12 LPS at 100 ng/ml” value is 10 % of the response to E. coli K12 LPS.

Values taken from patent US20160116469A1 (INSTITUTE OF ARTHRITIS RESEARCH, published 2016).
